Reference: US12427188B2, “Pyocyanine demethylases and related phenazine degrading agents compositions, methods and systems for interfering with viability of bacteria” (priority 2020, dated 2025)
Entries after “also recorded” stand apart in the source; their conditions may differ.

How the values were obtained:
[1] = Activity after boiling (kinetic stability); assay type: physicochemical; conditions: after 30 and 60 min of boiling; PodA 3 μM, PYO 100 μM
Protocol: FIG. 13. Activity of WT PodA30-162 and PodA10 after boiling. Protein was boiled as described in Materials and Methods, followed by an activity assay with PodA (3 μM) and PYO (100 μM) in a Spectramax M3 plate reader monitoring PYO absorbance (690 nm) overtime. Specific activity (nmol min-1 mg-1) was calculated for each sample. Replicates of PodA^WT un-boiled were averaged and set to 100% activity (dashed line). All other activities of boiled samples were compared to this value and presented as a percentage. Data represent technical triplicates and error bars represent standard deviation. A t-test was completed, with * representing a p-value<0.05 and ns representing not significant.
Due to the high thermal stability of PodA, stability assays that rely on monitoring protein unfolding over a temperature gradient were not suitable for the related testing. Therefore the enzyme's kinetic stability were analyzed by boiling WT PodA41-162 and PodA10 and measuring activity of each protein after specified boiling times. […] We also noted that several designed mutations in PodA8 and PodA10 were not prevalent in a multiple-sequence alignment of PodA homologs (FIG. 14), indicating the importance of the atomistic calculations to design success

[2] = system: P. aeruginosa strain PA14; test: PodA and tobramycin liquid (planktonic) synergy experiments; assay type: cell-based, Pseudomonas aeruginosa; conditions: LB; PodA10 5 μM; compared to individual antibiotic controls
Protocol: Pseudomonas aeruginosa PodA and tobramycin liquid synergy experiments. For planktonic synergy experiments, starter cultures were grown 24 h at 37° C. shaking in LB. Stationary phase cultures (usually between OD500 4-6) were aliquoted (100 μL) into 96-well clear bottom flat well plates (VWR). Antibiotics and PodA were diluted into stock concentrations to pipette 5 μL antibiotic and 2 μL PodA per well. Antibiotics were diluted into water and PodA was diluted into 50 mM HEPES (pH 7.5). Plates were incubated in a humidity Tupperware chamber lined with wet paper towel at 37° C. for 10 h. After incubation, wells were pipetted to resuspend, and each well was diluted 1:10 into fresh LB. From that mixture, 10 μL of diluted cells were pipetted into 90 μL fresh LB in 96-well flat bottom plates. Mineral Oil, light (65 μL undiluted, Sigma-Aldrich) was pipetted onto top of cultures to prevent dehydration and allow for oxygen diffusion. Microtiter plates were incubated at 37° C. inside a temperature-controlled chamber of a BioTek Synergy 4 plate reader. […] Cells from each 10 μL drips dilution were counted if colonies were between 10-100.
PodA10 and tobramycin cell treatments (same samples from FIG. 8) were diluted in series and dilutions were plated onto LB agar. Cells were counted if a dilution contained 10-100 colonies. […]

[3] = system: Pseudomonas aeruginosa; test: Crystal violet biofilm assay; assay type: cell-based; conditions: 24 h incubation, protein added from the beginning
Protocol: Crystal violet assay. Pseudomonas aeruginosa grown overnight in LB were inoculated (1.5%, v/v) and grown for 24 h at 37° C. in 96-well round bottom plates in minimal medium (100 μL) with arginine (40 mM) as the sole carbon source. PodA was added with cells simultaneously and was present during growth and biofilm development. Planktonic cells were removed and attached cells were quantified with crystal violet staining (125 μL. 0.1% w/v), followed by washes with water and de-staining with an acetic acid (30%, v/v) mixture in water. Crystal violet was measured using a SpectraMax® M3 Microplate Reader (Molecular Devices) at an absorbance of 550 nm. Details of procedure were published previously (28)[43].

[4] = Continuous spectrophotometric PYO demethylation assay (specific activity and kinetics of PodA); assay type: biochemical; conditions: for Activity over range of pH: PodA10 3 μM
Protocol: Specific activity and kinetics of PodA. To determine specific activity and kinetic parameters of PodA for PYO, a continuous spectrophotometric assay monitoring the absorbance of PYO (690 nm) was utilized. Briefly, assays were performed at 25° C. in 100 μL reaction volumes in 96-well plates and reactions were monitored at 690 nm over 10 min. Reaction mixtures contained Phosphate buffer (50 mM, pH 6.0), ethylene glycol (1%, v/v), protein (3 μM) and substrate (for specific activity, 100 μM, for kinetics, varying). Data were acquired using the SpectraMax® M3 Microplate Reader (Molecular Devices) using the Soft Max Pro software every 10 s over 10 min. Path lengths for each well were calculated using Soft Max Pro endpoint readings and slopes were corrected for path lengths of 1 cm.
Specific activity was calculated from the slope of the linear range of (ΔOD690 min^−1) using Beer's Law (A=εcl) with a path length of 1 cm and the molar extinction coefficient of PYO (4,130 M^−1 cm^−1). Equation was solved for c, giving specific activity in nmol min^−1 mg^−1 of PodA. For kinetic parameters, graphs of initial velocity (μM s^−1) versus substrate concentration (μM) were plotted using Prism v8 (GraphPad). The Michaelis-Menten kinetics model was used to determine Km and Vmax. The turnover number (kcat) was determined using the following equation: Vmax=kcat[E], where [E] was the concentration of PodA added. All spectrophotometric assays mentioned above were completed thrice, each in technical triplicate with a representative data set shown. Error bars represent standard deviation as calculated by Prism v8 (GraphPad). Standard deviation for kcat and Kcat KM^−1 was calculated using standard formulas for propagation of error.

B1: PodA10: Designed PodA41-162 variant: A53N, I73T, A87V, M99V, A129T; SEQ ID NO: 4 (protein)
chain: MVTMTLDVKNDQVNKHDFGKPGMDVGDMDIFSDTLSVDGKQVGYDGGVCFFTNVTPDNPVTYCELTIHLDAGEIFARSLTPATLAPFTMTITGGTGEYANSKGELTVSGVATPDEKYELKLTK
With B1 the Activity after boiling [1] was “significantly higher activity compared to WT PodA30-162”, the “cell viability (CFUs)” value [2] was “did not increase cell death” and the “biofilm attachment (crystal violet)” value [3] was “biofilm attachment defect that was comparable to that achieved by WT PodA41-162”. The “catalytic efficiency in growth medium compared to buffer” value ([4]; LB and SCFM, PodA 3 μM) was “No change”, the “catalytic efficiency compared with PodA^WT” value ([4]; Michaelis-Menten kinetics, 3 μM protein) was “slight increase in efficiency” and the “PYO demethylation activity relative to wild type” value ([4]; PYO 50 μM, PodA variants 3 μM) was “wild-type activity was maintained”. The “Activity over range of pH” value ([4]; PYO 100 μM) was “maintained activity over a large range of pH, with no observable preference between a pH of 5-9”, the “Activity over range of pH” value ([4]; PYO 100 μM, listed as PodA1041-162) was “maintained activity over a large range of pH, with no observable preference between a pH of 5.5 and 9” and the “Effect of salts (NaCl and KCl) on activity” value ([4]; cystic fibrosis sputum range, 66 mM Na+, 15 mM K+) was “not altered”. For the same molecule, the “Effect of slight increase in viscosity (ethylene glycol or glycerol 1% v/v) on activity” value ([4]; pH 6, PodA 3 μM, PYO 100 μM) was “slight ad-vantage; also recorded: slight advantage”.
